This note sets out measurements from patent publication US6451314B1, “MHC conjugates useful in ameliorating autoimmunity” (Anergen, Inc., priority 1988, dated 2002).

One data set relates to Lewis rats. Put plainly: Therapeutic treatment of clinical stage 1 EAMG.
For the next data set, the system named is RT1.D. The experiment in a line: Peptide loading of rat MHC II (nitrocellulose filter binding and TLC). As to conditions: 50-fold molar excess peptide, 37° C., 24 hours. The method, then: (§1) Rat MHC II Purification and Peptide Loading. Rat class II RT1.B and RT1.D molecules were detergent solubilized (0.5% NP-40, 10 mM Tris HCl pH 8.3, 1 mM PMSF, 0.02% NaN3) from homogenized spleens and purified by affinity chromatography with monoclonal antibodies OX 6 and […]. The RT1.B/D mixture was incubated at 37° C. for 24 hours with a 50-fold molar excess of peptide AChRα 100-116, followed by 24 hours of dialysis at 4° C. against 0.1% OG/PBS to remove unbound peptide. […] This complex is stable at 4° C. for at least 8 weeks.

For a further data set, the system named is RT1.B. The data set is described as above. The settings on record: 50-fold molar excess peptide, 37° C., 24 hours. Here is the method:
as §1

Data set [1] in a line: Serum half-life of 125I-labeled I-A^s, effect of liposomes. It counts as in vivo, mice. As to conditions: Sets 1 and 2: 10 μg, injected without blank liposomes. The method, then:
(§2) The protocol for these studies was generally as follows: Affinity-purified, soluble MHC molecules were labeled with ^125I by the iodobeads method (Pierce Chemical Co., Rockford, Ill. Excess ^125I was removed by dialysis against PBS containing 0.1% neutral detergent. The quality of the labeled protein was assessed by thin layer chromatography, cellulose acetate electrophoresis, and polyacrylamide gel electrophoresis. The MHC glycoprotein was administered by tail vein injection to mice subjected to Lugol's solution in the drinking water at least one day before injection. Blood samples were obtained at different time points. The animals were then sacrificed to obtain organs of interest. Radioactivity in the blood and organ samples was detected in a gamma well counter according to standard techniques.
I-A^s was labeled as described above. The labeled I-A^s molecules were captured inside liposomes by standard procedures (see, e.g., Remingtion's, supra). Ten mice were injected with 10 μg I-A^s, as described above, and divided into four sets: (1) I-A^s alone; (2) liposomal I-A^s; (3) liposomal I-A^s coinjected with blank liposomes; and (4) blank liposomes plus, 10 minutes later, liposomal I-A^s coinjected with blank liposomes. Blood samples were obtained at different time points after injection, and the percent of injected dose of I-A^s retained in the blood was calculated.

Data set [2] in a line: Serum half-life of 125I-labeled I-A^k, effect of periodate/cyanoborohydride treatment. It counts as in vivo, mice. As to conditions: 10 μg i.v. The method, then: as §2
I-A^k in a phosphate buffer containing 3 mM taurodeoxycholate at pH 7.5 was labeled as described above. The labeled molecules were subjected to periodate oxidation and cyanoborohydride reduction for 5 or 21 hours at 4° C., using 20 mM sodium periodate and 40 mM cyanoborohydride (final concentrations) in 0.1 M acetate buffer at pH 5.5. The reaction was quenched by addition of ethylene glycol (final concentration 0.7%). […] Blood samples were obtained at different time points and the percent of injected dose of I-A^k retained in the blood was calculated.

Data set [3] in a line: Serum half-life of 125I-labeled I-A^k, effect of asialoletuin. It counts as in vivo, mice. The method, then: as §2
IA^k was labeled and administered to mice as described above. The mice were divided into three sets: (1) I-A^k (10 μg i.v.); (2) I-A^k (10 μg i.v.) plus asialoletuin (10 mg i.v.) plus asialoletuin (100 mg i.p.); and (3) I-A^k (10 μg i.v.) plus asialoletuin (10 mg i.p.). Blood was drawn at different time points and the percent of injected dose retained in the blood was calculated.

Data set [4] deals with T cell clones AJ1.2 and 4R3.4. The experiment in a line: Proliferation (MTT uptake) of T cell clones with APC and MBP(1-13) after preincubation. The settings on record: preincubation five hours at 37° C., 72-hour incubation. Format: cell-based, mouse. The method, then: The effects of detergent-solubilized Class II molecules were examined by culturing 1×10^5 AJ1.2 or 4R3.4 cells with 50-100 ul of purified I-A^k alone, purified I-A^k plus MBP(1-13) and medium alone for five hours at 37° C. in 5% CO2. Following this incubation the cells were diluted to 900 ul and tested for their ability to respond to antigen-presenting cells (APC) and antigen [MBP(1-13)] in a proliferation assay. Uptake of 3-(4,5-dimethyl-thiazol-2-7′)-2,5 diphenyltetrazolium bromide (MTT) was used as an indication of cell proliferation.
Data are presented as % suppression of proliferation of cells incubated with Class I+Ag compared to cells cultured with medium alone and were calculated by using the formula:
Therefore, 4R3.4 or AJ1.2 cells were preincubated with 50-100 ul of I-A^k+MBP(1-13), I-A^k, or medium alone for five hours at 37° C. The cells were then diluted to an appropriate concentration and added to APC. Antigen [MBP(1-13)] was added to a final concentration ranging from 13.3 um to 53.2 um.
APC used in the study were prepared from spleens of female A/J mice. […] Following this incubation, spleen cells were washed five times with RPMI containing antibiotics, counted, and used as APC's.
Following a 72-hour incubation period of the cells with APC and MBP(1-13), the extent of proliferation was quantitated using MTT uptake. […]

As for “YAIVHMTKLLLDYPGKI [AChRα 100-116, Torpedo AChRα subunit peptide 100-116]”, the “clinical stage of representative rat” value in the data set on Lewis rats (61 days post EAMG induction) was 2.5; in the data set on Lewis rats (123 days post EAMG induction), “Dead (day 66)”. This molecule also displayed a survival frequency with Lewis rats (140 days post-induction, five weekly i.v. injections from clinical stage 1) of 0%. Besides, the “fraction of RT1.D that bound peptide” value in the data set with RT1.D is listed as 90-100%. The “fraction of RT1.B that bound peptide” value with RT1.B is reported as 70-80%.

B1: I-A^k: mouse Class II MHC glycoprotein I-A^k purified by affinity chromatography on 10-2.16 antibody (protein)
MHC II alpha: EDDIEADHVGSYGITVYQSPGDIGQYTFEFDGDELFYVDLDKKETVWMLPEFAQLRRFEPQGGLQNIATGKHNLEILTKRSNSTPATNEAPQATVFPKSPVLLGQPNTLICFVDNIFPPVINITWLRNSKSVTDGVYETSFFVNRDYSFHKLSYLTFIPSDDDIYDCKVEHWGLEEPVLKHWEPEIPAPMSELTE
MHC II beta: GNSERHFVHQFQPFCYFTNGTQRIRLVIRYIYNREEYVRFDSDVGEYRAVTELGRPDAEYWNKQYLERTRAELDTVCRHNYEKTETPTSLRRLEQPSVVISLSRTEALNHHNTLVCSVTDFYPAKIKVRWFRNGQEETVGVSSTQLIRNGDWTFQVLVMLEMTPRRGEVYTCHVEHPSLKSPITVEWRAQSESARSK
With B1, the serum mean half-life in data set [1] amounted to 2 min. In addition, the serum half-life in data set [2] was 4 min. For the same molecule, the mean serum half-life is 3 min in data set [3] (Set 1: I-A^k 10 μg i.v.), 40 min in data set [3] (Set 2: I-A^k 10 μg i.v. plus asialoletuin 10 mg i.v. plus asialoletuin 100 mg i.p.) and 35 min in data set [3] (Set 3: I-A^k 10 μg i.v. plus asialoletuin 10 mg i.p.). Further, in data set [4], the “proliferation in presence of APC and MBP(1-13)” value is listed as “proliferated to the same extent as cells cultured in medium”.
